In US20120129766A1 (IRM, published 2012):

T1: human β-klotho (human, UniProt Q86Z14 1-1044)
T1 sequence (looked up): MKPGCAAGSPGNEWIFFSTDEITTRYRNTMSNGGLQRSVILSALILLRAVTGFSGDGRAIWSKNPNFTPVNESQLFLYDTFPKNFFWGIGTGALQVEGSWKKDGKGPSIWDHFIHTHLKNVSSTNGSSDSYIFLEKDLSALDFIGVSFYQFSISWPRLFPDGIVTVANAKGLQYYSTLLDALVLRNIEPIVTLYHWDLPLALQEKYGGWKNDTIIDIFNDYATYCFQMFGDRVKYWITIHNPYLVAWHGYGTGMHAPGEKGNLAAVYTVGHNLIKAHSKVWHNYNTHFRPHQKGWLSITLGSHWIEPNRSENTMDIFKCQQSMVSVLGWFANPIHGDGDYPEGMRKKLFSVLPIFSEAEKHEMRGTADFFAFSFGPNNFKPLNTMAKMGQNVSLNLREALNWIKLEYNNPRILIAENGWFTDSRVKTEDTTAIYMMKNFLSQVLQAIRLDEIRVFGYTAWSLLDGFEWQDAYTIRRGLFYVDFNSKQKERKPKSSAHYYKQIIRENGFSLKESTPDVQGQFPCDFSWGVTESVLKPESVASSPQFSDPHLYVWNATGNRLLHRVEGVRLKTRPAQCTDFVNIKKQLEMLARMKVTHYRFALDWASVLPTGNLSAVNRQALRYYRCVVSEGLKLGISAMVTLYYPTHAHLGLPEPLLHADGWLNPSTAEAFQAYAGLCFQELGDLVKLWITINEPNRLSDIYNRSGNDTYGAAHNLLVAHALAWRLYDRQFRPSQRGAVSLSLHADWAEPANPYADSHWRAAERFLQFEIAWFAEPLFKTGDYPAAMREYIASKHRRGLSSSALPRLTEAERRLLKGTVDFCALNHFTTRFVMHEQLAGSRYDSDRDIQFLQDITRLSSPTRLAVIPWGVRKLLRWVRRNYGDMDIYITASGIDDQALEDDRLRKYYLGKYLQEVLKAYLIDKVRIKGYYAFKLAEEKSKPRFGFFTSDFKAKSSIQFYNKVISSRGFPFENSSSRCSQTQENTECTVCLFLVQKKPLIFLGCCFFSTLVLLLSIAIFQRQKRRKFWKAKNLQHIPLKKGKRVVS


Each binder was assayed against T1, human β-klotho (assay: cell-based or functional assay).

| Binder | EC50 (nM), pERK In Cell Western | Fold-WT (EC50 of variant / EC50 of FGF21-WT) |
| --- | --- | --- |
| hFGF21(33-209)-V5 (ligand) DSSPLLQFGGQVRQRYLYTDDDQQTEAHLEIREDGTVGGAAHQSPESLLQLKALKPGVIQILGVKASRFLCQKPDGALYGSLHFDPEACSFRELLLENGYNVYQSEAHGLPLHLPGNRSPHRDPASQGPARFLPLPGLPPALPEPPGILAPQPPDVGSSDPLAMVGPSQARSPSYAS | 26 nM | 9.3 fold |
| hFGF21(33-209)-V13 (ligand) DSSPLLQFGGQVRQRYLYTDDDQQTEAHLEIREDGTVGGAAHQSPESLLQLKALKPGVIQILGVKASRFLCQKPDGALYGSLHFDPEACSFRELLLENGYNVYQSEAHGLPLHLPGNRSPHRDPAPQGPARFLPLPGLPPALPEPPGILAPQPPDVGSSDPLAMVGPSQGRSPSYAS | 11 nM | 4 fold |
| hFGF21(33-209)-V56 (ligand) DSSPLLQFGGQVRQRYLYTDDAQQTEAHLEIREDGTVGGAAHQSPESLLQLKALKPGVIQILGVKASRFLCQKPDGALYGSLHFDPEACSFRELLLENGYNVYQSETHGLPLHLPGNKSPHRDPASQGPARFLPLPGLPPAPPEPPGILAPQPPDVGSSDPLAMVGPSQARSPSYAS | 37 nM | 14 fold |
| hFGF21(33-209)-V7 (ligand) DSSPLLQFGGQVRQRYLYTDDAQETEAHLEIREDGTVGGAAHQSPESLLQLKALKPGVIQILGVKASRFLCQKPDGALYGSLHFDPEACSFRELLLENGYNVYQSEAHGLPLHLPGNRSPHRDPASQGPARFLPLPGLPPALPEPPGILAPQPPDVGSSDPLAMVGPSQARSPSYAS | 19 nM | 6.8 fold |
| hFGF21(33-209)-V54 (ligand) DSSPLLQFGGQVRQRYLYTDDAQQTEAHLEIREDGTVGGAAHQSPESLLELKALKPGVIQILGVKTSRFLCQKPDGTLYGSLHFDPEACSFRELLLENGYNVYQSEAHGLPLHLPGNRSPHRDPASQGPARFLPLPGLPPAPPEPPGILAPQPPDVGSSDPLAMVGPSQGRSPSYAS | 25 nM | 9.2 fold |
| hFGF21(33-209)-V10 (ligand) DSSPLLQFGGQVRQRYLYTDDAQETEAHLEIREDGTVGGAAHQSPESLLQLKALKPGVIQILGVKASRFLCQKPDGALYGSLHFDPEACSFRELLLENGYNVYQSETHGLPLHLPGNKSPHRDPASQGPARFLPLPGLPPALPEPPGILAPQPPDVGSSDPLAMVGPSQARSPSYAS | 18 nM | 3.3 fold |
| hFGF21(33-209)-V14-L174P, R154C-40 kDa bPEG-MA (ligand, 40 kDa branched maleimido-PEG on Cys 154 (numbered on SEQ ID NO:1)) DSSPLLQFGGQVRQRYLYTDDAQETEAHLEIREDGTVGGAAHQSPESLLELKALKPGVIQILGVKTSRFLCQKPDGALYGSLHFDPEACSFRELLLENGYNVYQSEAHGLPLHLPGNRSPHCDPAPQGPARFLPLPGLPPAPPEPPGILAPQPPDVGSSDPLAMVGPSQGRSPSYAS | 21 nM | 3.3 fold |
| hFGF21(33-209)-V14pool 1-N-40 kDa bPEG-AL (ligand, 40 kDa branched PEG (aldehyde reagent) on the N-terminal amine) DSSPLLQFGGQVRQRYLYTDDAQETEAHLEIREDGTVGGAAHQSPESLLELKALKPGVIQILGVKTSRFLCQKPDGALYGSLHFDPEACSFRELLLENGYNVYQSEAHGLPLHLPGNRSPHRDPAPQGPARFLPLPGLPPALPEPPGILAPQPPDVGSSDPLAMVGPSQGRSPSYAS | 107 nM | 22 fold |
| hFGF21(33-209)-V14-pool1 (ligand) DSSPLLQFGGQVRQRYLYTDDAQETEAHLEIREDGTVGGAAHQSPESLLELKALKPGVIQILGVKTSRFLCQKPDGALYGSLHFDPEACSFRELLLENGYNVYQSEAHGLPLHLPGNRSPHRDPAPQGPARFLPLPGLPPALPEPPGILAPQPPDVGSSDPLAMVGPSQGRSPSYAS | 6.7 nM | 1.4 fold |
| hFGF21(33-209)-V53 (ligand) DSSPLLQFGGQVRQRYLYTDDAQETEAHLEIREDGTVGGAAHQSPESLLELKALKPGVIQILGVKTSRFLCQKPDGALYGSLHFDPEACSFRELLLENGYNVYQSEAHGLPLHLPGNRSPHRDPASQGPARFLPLPGLPPAPPEPPGILAPQPPDVGSSDPLAMVGPSQGRSPSYAS | 4.2 nM | 1.3 fold |
| hFGF21(33-209)-V57 (ligand) DSSPLLQFGGQVRQRYLYTDDAQQTEAHLEIREDGTVGGAAHQSPESLLQLKALKPGVIQILGVKASRFLCQRPDGALYGSLHFDPEACSFRELLLENGYNVYQSETHGLPLHLPGNRSPHRDPASQGPARFLPLPGLPPAPPEPPGILAPQPPDVGSSDPLAMVGPSQARSPSYAS | 22 nM | 5.4 fold |
| hFGF21(33-209)-V55 (ligand) DSSPLLQFGGQVRQRYLYTDDAQQTEAHLEIREDGTAGGAAHQSPESLLELKALKPGVIQILGVKTSRFLCQKPDGALYGSLHFDPEACSFRELLLENGYNVYQSEAHGLPLHLPGNRSPHRDPASQGPARFLPLPGLPPAPPEPPGILAPQPPDVGSSDPLAMVGPSQGRSPSYAS | 34 nM | 13 fold |
| hFGF21(33-209)-V14-R154C, L174P (ligand) DSSPLLQFGGQVRQRYLYTDDAQETEAHLEIREDGTVGGAAHQSPESLLELKALKPGVIQILGVKTSRFLCQKPDGALYGSLHFDPEACSFRELLLENGYNVYQSEAHGLPLHLPGNRSPHCDPAPQGPARFLPLPGLPPAPPEPPGILAPQPPDVGSSDPLAMVGPSQGRSPSYAS | 6.7 nM | 1 fold |
| hFGF21(33-209)-V15 (ligand) DSSPLLQFGGQVRQRYLYTDDAQETEAHLEIREDGTVGGAAHQSPESLLQLKALKPGVIQILGVQTSRFLCQKPDGALYGSLHFDPEACSFRELLLENGYNVYQSEAHGLPLHLPGNRSPHRDPAPQGPARFLPLPGLPPALPEPPGILAPQPPDVGSSDPLAMVGPSQGRSPSYAS | 3.3 nM | 1.2 fold |

Further lines, results first:

| EC50 (nM), pERK In Cell Western | Fold-WT (EC50 of variant / EC50 of FGF21-WT) | Binder |
| --- | --- | --- |
| 14 nM | 5 fold | hFGF21(33-209)-V12 (ligand) DSSPLLQFGGQVRQRYLYTDDDQQTEAHLEIREDGTVGGAAHQSPESLLQLKALKPGVIQILGVQTSRFLCQKPDGALYGSLHFDPEACSFRELLLENGYNVYQSEAHGLPLHLPGNRSPHRDPAPQGPARFLPLPGLPPALPEPPGILAPQPPDVGSSDPLAMVGPSQGRSPSYAS |
| 15 nM | 2.7 fold | hFGF21(33-209)-V18 (ligand) DSSPLLQFGGQVRQRYLYTDDAQQTESHLEIREDGTVGGAAHQSPESLLQLKALKPGVIQILGVQTSRFLCQKPDGALYGSLHFDPEACSFRELLLENGYNVYQSEAHGLPLHLPGNRSPHRDPAPQGPARFLPLPGLPPALPEPPGILAPQPPDVGSSDPLAMVGPSQGRSPSYAS |
| 66 nM | 94 fold | hFGF21(33-209)-V52 (ligand) DSSPLVQFGGQVRQRYLYTDDAQQTEAHLEIREDGTVGGAAHQSPESLLQLKALKPGVIQILGVKTSRFLCQKPDGALYGSLHFDPEACSFRELLLENGYNVYQSEAHSLPLHLPGNKSPHRDPASQGPARFLPLPGLPPALPEPPGILAPQPPDVGSSDPLSMVGPSQARSPSYAS |
| 28 nM | 18 fold | hFGF21(33-209)-V11 (ligand) DSSPLLQFGGQVRQRYLYTDDDQQTEAHLEIREDGTVGGAAHQSPESLLELKALKPGVIQILGVKTSRFLCQKPDGALYGSLHFDPEACSFRELLLENGYNVYQSEAHGLPLHLPGNRSPHRDPAPQGPARFLPLPGLPPALPEPPGILAPQPPDVGSSDPLAMVGPSQGRSPSYAS |
| 5.3 nM | 1.4 fold | hFGF21(33-209)-V14-pool2 (ligand) DSSPLLQFGGQVRQRYLYTDDAQETEAHLEIREDGTVGGAAHQSPESLLELKALKPGVIQILGVKTSRFLCQKPDGALYGSLHFDPEACSFRELLLEDGYNVYQSEAHGLPLHLPGNRSPHRDPAPQGPARFLPLPGLPPALPEPPGILAPQPPDVGSSDPLAMVGPSQGRSPSYAS |
| 11 nM | 6.5 fold | hFGF21(33-209)-V16 (ligand) DSSPLLQFGGQVRQRYLYTDDAQETEAHLEIREDGTVGGAAHQSPESLLQLKALKPGVIQILGVKASRFLCQKPDGALYGSLHFDPEACSFRELLLENGYNVYQSEAHGLPLHLPGNRSPHRDPAPQGPARFLPLPGLPPALPEPPGILAPQPPDVGSSDPLAMVGPSQGRSPSYAS |
